{
  "source": "paper PMC2690590",
  "about": "“Functional recombinant MHC class II molecules and high-throughput peptide-binding assays” (Immunome Research, 2009)",
  "molecules": {"B1": {"name": "Invariant Chain: a recombinant version of the extracellular part of human invariant chain (positions 73–208) (protein)", "chain": "QQQGRLDKLTVTSQNLQLENLRMKLPKPPKPVSKMRMATPLLMQALPMGALPQGPMQNATKYGNMTEDHVMHLLQNADPLKVYPPLKGSFPENLRHLKNTMETIDWKVFESWMHHWLLFEMSRHSLEQKPTDAPPK"}},
  "key": {"DR1 (DRA*0101/DRB1*0101) [1]": {"target": "T1, DR1 (DRA*0101/DRB1*0101) (Homo sapiens, UniProt P01903+P01911, A100R/D57E/F55L/F60I/F76Y/I96L/L162R/M171V/P40L/Q125E/R42F/V115G/Y59C)", "test": "Competitive peptide-HLA-DR1 binding assay, radioactive spun column", "conditions": "competition with 125I labelled (Y)HA306–318, spun column assay"}, "DR1 (DRA*0101/DRB1*0101) [2]": {"target": "T1, DR1 (DRA*0101/DRB1*0101)", "test": "Scintillation proximity assay (SPA), competitive, DR1", "type": "binding", "conditions": "30 nM DR1 α and β chain; 2 nM 125I labeled YHA306-318; refolding buffer pH 8; 24 h 18°C; streptavidin SPA beads"}},
  "data": [
    {"molecule": "B1", "values": [
      {"measurement": "binder to DR1 (in words)", "setting": "DR1 (DRA*0101/DRB1*0101) [1]", "value": "good binders"},
      {"measurement": "binder to DR1 (in words), SPA", "setting": "DR1 (DRA*0101/DRB1*0101) [2]", "value": "good binders"}
    ]}
  ]
}
